Measurements as given in publication PMC4414246.

Key:
Test in all cases: fluorescence polarization
[1] = molecular target: U1A M51N (UniProt P09012 10-89, M51N)
[2] = molecular target: dK50dM51 E19A (UniProt P09012 10-89, E19A;del50-51)
[3] = molecular target: U1A E19K (UniProt P09012 10-89, E19K)
[4] = molecular target: dK50dM51 E19S (UniProt P09012 10-89, E19S;del50-51)
[5] = molecular target: U1A E19A:Y13Q (UniProt P09012 10-89, Y13Q;E19A)
[6] = molecular target: U1A E19S:F56A (UniProt P09012 10-89, E19S;F56A)
[7] = molecular target: dK50dM51 (UniProt P09012 10-89, del50-51)
[8] = molecular target: dK50dM51 E19F (UniProt P09012 10-89, E19F;del50-51)
[9] = molecular target: U1A S46A (UniProt P09012 10-89, S46A)
[10] = molecular target: U1A E19A:F56A (UniProt P09012 10-89, E19A;F56A)
[11] = molecular target: dK50dM51 E19N (UniProt P09012 10-89, E19N;del50-51)
[12] = molecular target: U1A M51A:F56A (UniProt P09012 10-89, M51A;F56A)
[13] = molecular target: U1A E19F:F56A (UniProt P09012 10-89, E19F;F56A)
[14] = molecular target: dK50dM51 N16A (UniProt P09012 10-89, N16A;del50-51)
[15] = molecular target: U1A M51F (UniProt P09012 10-89, M51F)
[16] = molecular target: U1A E19A (UniProt P09012 10-89, E19A)
[17] = molecular target: U1A M51A:N15V (UniProt P09012 10-89, N15V;M51A)
[18] = molecular target: dK50dM51 E19K (UniProt P09012 10-89, E19K;del50-51)
[19] = molecular target: U1A E19F:Y13Q (UniProt P09012 10-89, Y13Q;E19F)
[20] = molecular target: U1A S48A (UniProt P09012 10-89, S48A)
[21] = molecular target: U1A M51K (UniProt P09012 10-89, M51K)
[22] = molecular target: U1A E19F:N15V (UniProt P09012 10-89, N15V;E19F)
[23] = molecular target: U1A M51S (UniProt P09012 10-89, M51S)
[24] = molecular target: U1A M51A:E19A (UniProt P09012 10-89, E19A;M51A)

B1: TAR RNA (structured_RNA)
RNA: GGCAGAUCUGAGCCUGGGAGCUCUCUGCC
Question: With B1 as the binder, how does the Kd [1] read?
Answer: Its Kd is 13.8 ± 1.6 µM.

Question: And the Kd [2]?
Answer: The Kd was 10.2 ± 2.2 µM.

Question: What about the Kd [3] of the same binder?
Answer: The Kd was 5.9 ± 0.4 µM.

Question: And the Kd [4]?
Answer: Its Kd is 7 ± 1.9 µM.

Question: What about the Kd [5] of the same binder?
Answer: Its Kd is 21.7 ± 5.3 µM.

Question: What about the Kd [6] of the same binder?
Answer: The Kd was 19.2 ± 1.4 µM.

Question: What about the Kd [7] of the same binder?
Answer: The Kd was 15.9 ± 2.3 µM.

Question: What about the Kd [8] of the same binder?
Answer: Its Kd is 12.6 ± 1.8 µM.

Question: What about the Kd [9] of the same binder?
Answer: The Kd was 15.1 ± 2.6 µM.

Question: What about the Kd [10] of the same binder?
Answer: The Kd was 29.2 ± 6.3 µM.

Question: What about the Kd [11] of the same binder?
Answer: The Kd was 27.8 ± 3.2 µM.

Question: What about the Kd [12] of the same binder?
Answer: The Kd was 177 ± 98.2 µM.

Question: What about the Kd [13] of the same binder?
Answer: Its Kd is 20.9 ± 3.3 µM.

Question: And the Kd [14]?
Answer: Its Kd is 62.1 ± 5.4 µM.

Question: What about the Kd [15] of the same binder?
Answer: Its Kd is 16.4 ± 2.3 µM.

Question: What about the Kd [16] of the same binder?
Answer: Its Kd is 5.9 ± 0.8 µM.

Question: And the Kd [17]?
Answer: Its Kd is 46 ± 13.4 µM.

Question: And the Kd [18]?
Answer: The Kd was 6.3 ± 1 µM.

Question: And the Kd [19]?
Answer: Its Kd is 58 ± 24.1 µM.

Question: What about the Kd [20] of the same binder?
Answer: The Kd was 14.2 ± 1.3 µM.

Question: And the Kd [21]?
Answer: Its Kd is 7.7 ± 0.5 µM.

Question: What about the Kd [22] of the same binder?
Answer: The Kd was 19 ± 2.5 µM.

Question: What about the Kd [23] of the same binder?
Answer: Its Kd is 29.9 ± 5.7 µM.

Question: And the Kd [24]?
Answer: Its Kd is 14.9 ± 2.5 µM.
